Source: US20220298218A1 (ANTAG THERAPEUTICS, published 2022)
*1 amine or outer side, *2 acyl side, *3 side chain or, on linkers, in order; H or OH if unused. Where no end group is shown, it is not given here. Side-chain parts run from the residue outwards. The star is where a group is joined. C18 diacid = O=C(O)CCCCCCCCCCCCCCCCC(=O)*; C16 diacid = O=C(O)CCCCCCCCCCCCCCC(=O)*; γGlu = O=C(O)[C@H](CCC(=O)[*:2])N[*:1]; AEEA = NCCOCCOCC(=O)O

T1: human GIP receptor (human, UniProt P48546 22-466)
T1 sequence (looked up): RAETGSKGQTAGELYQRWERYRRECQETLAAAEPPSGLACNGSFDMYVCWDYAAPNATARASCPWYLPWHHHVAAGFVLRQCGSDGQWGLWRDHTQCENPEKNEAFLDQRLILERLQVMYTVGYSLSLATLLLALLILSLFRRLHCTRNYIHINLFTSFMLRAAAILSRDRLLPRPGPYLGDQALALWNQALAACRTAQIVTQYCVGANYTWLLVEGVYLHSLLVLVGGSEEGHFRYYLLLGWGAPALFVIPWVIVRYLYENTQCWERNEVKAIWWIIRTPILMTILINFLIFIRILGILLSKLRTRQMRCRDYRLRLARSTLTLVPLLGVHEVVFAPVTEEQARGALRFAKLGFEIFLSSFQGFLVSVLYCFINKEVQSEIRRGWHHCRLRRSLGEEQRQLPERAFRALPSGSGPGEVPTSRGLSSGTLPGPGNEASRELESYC


What follows are binders tested against T1, human GIP receptor (assay: cell-based or functional assay).

Binder | cAMP antagonism [nM] | cAMP antagonism % inhib [%] | cAMP antagonism log [log M]
SGTFISDYSIAMDKIK([AEEA-AEEA-AEEA-γGlu-C18 diacid])QQDFVNWLLAQKGPSSGAPPPS-OH (N-terminus assumed; SMILES CC[C@H](C)[C@H](NC(=O)[C@H](CO)NC(=O)[C@H](Cc1ccc(O)cc1)NC(=O)[C@H](CC(=O)O)NC(=O)[C@H](CO)NC(=O)[C@@H](NC(=O)[C@H](Cc1ccccc1)NC(=O)[C@@H](NC(=O)CNC(=O)[C@@H](N)CO)[C@@H](C)O)[C@@H](C)CC)C(=O)N[C@@H](C)C(=O)N[C@@H](CCSC)C(=O)N[C@@H](CC(=O)O)C(=O)N[C@@H](CCCCN)C(=O)N[C@H](C(=O)N[C@@H](CCCCNC(=O)COCCOCCNC(=O)COCCOCCNC(=O)COCCOCCNC(=O)CC[C@H](NC(=O)CCCCCCCCCCCCCCCCC(=O)O)C(=O)O)C(=O)N[C@@H](CCC(N)=O)C(=O)N[C@@H](CCC(N)=O)C(=O)N[C@@H](CC(=O)O)C(=O)N[C@@H](Cc1ccccc1)C(=O)N[C@H](C(=O)N[C@@H](CC(N)=O)C(=O)N[C@@H](Cc1c[nH]c2ccccc12)C(=O)N[C@@H](CC(C)C)C(=O)N[C@@H](CC(C)C)C(=O)N[C@@H](C)C(=O)N[C@@H](CCC(N)=O)C(=O)N[C@@H](CCCCN)C(=O)NCC(=O)N1CCC[C@H]1C(=O)N[C@@H](CO)C(=O)N[C@@H](CO)C(=O)NCC(=O)N[C@@H](C)C(=O)N1CCC[C@H]1C(=O)N1CCC[C@H]1C(=O)N1CCC[C@H]1C(=O)N[C@@H](CO)C(=O)O)C(C)C)[C@@H](C)CC) [AT438] | 54 | 100 | -7.3
SGTFISDYSIAMDRIK([AEEA-AEEA-AEEA-γGlu-C16 diacid])QQDFVNWLLAQRGRRNDW-OH (N-terminus assumed; SMILES CC[C@H](C)[C@H](NC(=O)[C@H](CO)NC(=O)[C@H](Cc1ccc(O)cc1)NC(=O)[C@H](CC(=O)O)NC(=O)[C@H](CO)NC(=O)[C@@H](NC(=O)[C@H](Cc1ccccc1)NC(=O)[C@@H](NC(=O)CNC(=O)[C@@H](N)CO)[C@@H](C)O)[C@@H](C)CC)C(=O)N[C@@H](C)C(=O)N[C@@H](CCSC)C(=O)N[C@@H](CC(=O)O)C(=O)N[C@@H](CCCNC(=N)N)C(=O)N[C@H](C(=O)N[C@@H](CCCCNC(=O)COCCOCCNC(=O)COCCOCCNC(=O)COCCOCCNC(=O)CC[C@H](NC(=O)CCCCCCCCCCCCCCC(=O)O)C(=O)O)C(=O)N[C@@H](CCC(N)=O)C(=O)N[C@@H](CCC(N)=O)C(=O)N[C@@H](CC(=O)O)C(=O)N[C@@H](Cc1ccccc1)C(=O)N[C@H](C(=O)N[C@@H](CC(N)=O)C(=O)N[C@@H](Cc1c[nH]c2ccccc12)C(=O)N[C@@H](CC(C)C)C(=O)N[C@@H](CC(C)C)C(=O)N[C@@H](C)C(=O)N[C@@H](CCC(N)=O)C(=O)N[C@@H](CCCNC(=N)N)C(=O)NCC(=O)N[C@@H](CCCNC(=N)N)C(=O)N[C@@H](CCCNC(=N)N)C(=O)N[C@@H](CC(N)=O)C(=O)N[C@@H](CC(=O)O)C(=O)N[C@@H](Cc1c[nH]c2ccccc12)C(=O)O)C(C)C)[C@@H](C)CC) [AT424] | 35 | 100 | -7.5
SGTFISDYSIAMDRIK([AEEA-AEEA-AEEA-γGlu-C18 diacid])QQDFVNWLLAQRGRRNDW-OH (N-terminus assumed; SMILES CC[C@H](C)[C@H](NC(=O)[C@H](CO)NC(=O)[C@H](Cc1ccc(O)cc1)NC(=O)[C@H](CC(=O)O)NC(=O)[C@H](CO)NC(=O)[C@@H](NC(=O)[C@H](Cc1ccccc1)NC(=O)[C@@H](NC(=O)CNC(=O)[C@@H](N)CO)[C@@H](C)O)[C@@H](C)CC)C(=O)N[C@@H](C)C(=O)N[C@@H](CCSC)C(=O)N[C@@H](CC(=O)O)C(=O)N[C@@H](CCCNC(=N)N)C(=O)N[C@H](C(=O)N[C@@H](CCCCNC(=O)COCCOCCNC(=O)COCCOCCNC(=O)COCCOCCNC(=O)CC[C@H](NC(=O)CCCCCCCCCCCCCCCCC(=O)O)C(=O)O)C(=O)N[C@@H](CCC(N)=O)C(=O)N[C@@H](CCC(N)=O)C(=O)N[C@@H](CC(=O)O)C(=O)N[C@@H](Cc1ccccc1)C(=O)N[C@H](C(=O)N[C@@H](CC(N)=O)C(=O)N[C@@H](Cc1c[nH]c2ccccc12)C(=O)N[C@@H](CC(C)C)C(=O)N[C@@H](CC(C)C)C(=O)N[C@@H](C)C(=O)N[C@@H](CCC(N)=O)C(=O)N[C@@H](CCCNC(=N)N)C(=O)NCC(=O)N[C@@H](CCCNC(=N)N)C(=O)N[C@@H](CCCNC(=N)N)C(=O)N[C@@H](CC(N)=O)C(=O)N[C@@H](CC(=O)O)C(=O)N[C@@H](Cc1c[nH]c2ccccc12)C(=O)O)C(C)C)[C@@H](C)CC) [AT426] | 28 | 80 | -7.6
SGTFISDYSIAMDKIK([AEEA-AEEA-AEEA-γGlu-C16 diacid])QQDFVNWLLAQKGPSSGAPPPS-OH (N-terminus assumed; SMILES CC[C@H](C)[C@H](NC(=O)[C@H](CO)NC(=O)[C@H](Cc1ccc(O)cc1)NC(=O)[C@H](CC(=O)O)NC(=O)[C@H](CO)NC(=O)[C@@H](NC(=O)[C@H](Cc1ccccc1)NC(=O)[C@@H](NC(=O)CNC(=O)[C@@H](N)CO)[C@@H](C)O)[C@@H](C)CC)C(=O)N[C@@H](C)C(=O)N[C@@H](CCSC)C(=O)N[C@@H](CC(=O)O)C(=O)N[C@@H](CCCCN)C(=O)N[C@H](C(=O)N[C@@H](CCCCNC(=O)COCCOCCNC(=O)COCCOCCNC(=O)COCCOCCNC(=O)CC[C@H](NC(=O)CCCCCCCCCCCCCCC(=O)O)C(=O)O)C(=O)N[C@@H](CCC(N)=O)C(=O)N[C@@H](CCC(N)=O)C(=O)N[C@@H](CC(=O)O)C(=O)N[C@@H](Cc1ccccc1)C(=O)N[C@H](C(=O)N[C@@H](CC(N)=O)C(=O)N[C@@H](Cc1c[nH]c2ccccc12)C(=O)N[C@@H](CC(C)C)C(=O)N[C@@H](CC(C)C)C(=O)N[C@@H](C)C(=O)N[C@@H](CCC(N)=O)C(=O)N[C@@H](CCCCN)C(=O)NCC(=O)N1CCC[C@H]1C(=O)N[C@@H](CO)C(=O)N[C@@H](CO)C(=O)NCC(=O)N[C@@H](C)C(=O)N1CCC[C@H]1C(=O)N1CCC[C@H]1C(=O)N1CCC[C@H]1C(=O)N[C@@H](CO)C(=O)O)C(C)C)[C@@H](C)CC) [AT436] | 18 | 100 | -7.7
EGTFISDYSIAMDKIK([AEEA-AEEA-AEEA-γGlu-C16 diacid])QQDFVNWLLAQKGPSSGAPPPS-OH (N-terminus assumed; SMILES CC[C@H](C)[C@H](NC(=O)[C@H](CO)NC(=O)[C@H](Cc1ccc(O)cc1)NC(=O)[C@H](CC(=O)O)NC(=O)[C@H](CO)NC(=O)[C@@H](NC(=O)[C@H](Cc1ccccc1)NC(=O)[C@@H](NC(=O)CNC(=O)[C@@H](N)CCC(=O)O)[C@@H](C)O)[C@@H](C)CC)C(=O)N[C@@H](C)C(=O)N[C@@H](CCSC)C(=O)N[C@@H](CC(=O)O)C(=O)N[C@@H](CCCCN)C(=O)N[C@H](C(=O)N[C@@H](CCCCNC(=O)COCCOCCNC(=O)COCCOCCNC(=O)COCCOCCNC(=O)CC[C@H](NC(=O)CCCCCCCCCCCCCCC(=O)O)C(=O)O)C(=O)N[C@@H](CCC(N)=O)C(=O)N[C@@H](CCC(N)=O)C(=O)N[C@@H](CC(=O)O)C(=O)N[C@@H](Cc1ccccc1)C(=O)N[C@H](C(=O)N[C@@H](CC(N)=O)C(=O)N[C@@H](Cc1c[nH]c2ccccc12)C(=O)N[C@@H](CC(C)C)C(=O)N[C@@H](CC(C)C)C(=O)N[C@@H](C)C(=O)N[C@@H](CCC(N)=O)C(=O)N[C@@H](CCCCN)C(=O)NCC(=O)N1CCC[C@H]1C(=O)N[C@@H](CO)C(=O)N[C@@H](CO)C(=O)NCC(=O)N[C@@H](C)C(=O)N1CCC[C@H]1C(=O)N1CCC[C@H]1C(=O)N1CCC[C@H]1C(=O)N[C@@H](CO)C(=O)O)C(C)C)[C@@H](C)CC) [AT432] | 19 | 92 | -7.7
EGTFISDYSIAMDKIK([AEEA-AEEA-AEEA-γGlu-C16 diacid])QQDFVNWLLAQKGKKNDW-OH (N-terminus assumed; SMILES CC[C@H](C)[C@H](NC(=O)[C@H](CO)NC(=O)[C@H](Cc1ccc(O)cc1)NC(=O)[C@H](CC(=O)O)NC(=O)[C@H](CO)NC(=O)[C@@H](NC(=O)[C@H](Cc1ccccc1)NC(=O)[C@@H](NC(=O)CNC(=O)[C@@H](N)CCC(=O)O)[C@@H](C)O)[C@@H](C)CC)C(=O)N[C@@H](C)C(=O)N[C@@H](CCSC)C(=O)N[C@@H](CC(=O)O)C(=O)N[C@@H](CCCCN)C(=O)N[C@H](C(=O)N[C@@H](CCCCNC(=O)COCCOCCNC(=O)COCCOCCNC(=O)COCCOCCNC(=O)CC[C@H](NC(=O)CCCCCCCCCCCCCCC(=O)O)C(=O)O)C(=O)N[C@@H](CCC(N)=O)C(=O)N[C@@H](CCC(N)=O)C(=O)N[C@@H](CC(=O)O)C(=O)N[C@@H](Cc1ccccc1)C(=O)N[C@H](C(=O)N[C@@H](CC(N)=O)C(=O)N[C@@H](Cc1c[nH]c2ccccc12)C(=O)N[C@@H](CC(C)C)C(=O)N[C@@H](CC(C)C)C(=O)N[C@@H](C)C(=O)N[C@@H](CCC(N)=O)C(=O)N[C@@H](CCCCN)C(=O)NCC(=O)N[C@@H](CCCCN)C(=O)N[C@@H](CCCCN)C(=O)N[C@@H](CC(N)=O)C(=O)N[C@@H](CC(=O)O)C(=O)N[C@@H](Cc1c[nH]c2ccccc12)C(=O)O)C(C)C)[C@@H](C)CC) [AT416] | 52 | 90 | -7.3
